We go through four substances from US20110288001A1, “BIOLOGICALLY ACTIVE PROTEINS ACTIVATABLE BY PEPTIDASE” (priority 2008, published 2011).

Data set [1] deals with human GLP1 receptor (human) (UniProt P43220). The data set is described as follows: cell-based or functional assay.
The conditions of data set [2]: in vivo; cited from earlier work.
The conditions of data set [3]: in vivo; cited from earlier work. This is another data set of the same source.
For data set [4], the system named is PB0967, GLP1-ELP construct with Met-Ala-Ala at the N-terminus (Met removed by E. coli), not treated with DPP-IV.

UniProt P43220, sequence (P43220 24-463): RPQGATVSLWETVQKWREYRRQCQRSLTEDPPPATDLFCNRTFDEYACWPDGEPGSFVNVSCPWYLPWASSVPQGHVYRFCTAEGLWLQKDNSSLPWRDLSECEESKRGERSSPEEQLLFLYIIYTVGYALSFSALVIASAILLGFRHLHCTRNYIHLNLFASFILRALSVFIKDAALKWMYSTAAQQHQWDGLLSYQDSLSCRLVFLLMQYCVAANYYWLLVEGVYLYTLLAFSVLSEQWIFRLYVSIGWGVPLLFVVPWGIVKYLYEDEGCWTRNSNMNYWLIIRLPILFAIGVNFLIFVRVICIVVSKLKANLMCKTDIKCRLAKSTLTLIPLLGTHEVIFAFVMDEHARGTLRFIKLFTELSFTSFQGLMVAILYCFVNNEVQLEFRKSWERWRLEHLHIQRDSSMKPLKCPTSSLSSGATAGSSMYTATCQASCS

In turn, Exendin-4 peptide had an EC50 in cAMP assay in data set [1] of 1 nM.
In the case of “GLP-1: native glucagon-like peptide-1, physiological incretin originating from preproglucagon”, in data set [2], the “plasma half-life (t1/2)” value is 1 to 2 min.
With HSDAVFTDNYTRLRKQMAVKKYLNSILN [VIP], in data set [3], the “half-life in the blood” value is “about two”.
For dipeptidyl peptidase-4 (DPP-IV), the “gain of cAMP activity of the substrate after DPP-IV treatment (enzyme processing)” value in data set [4] is “is activated if it is first treated with DPP-IV to remove the remaining Ala-Ala and expose the N-terminal His of GLP1”.
